Consider 2 proteins from US20060272039.

The target of data set [1] is His-DAF-16 (N-terminal fragment), O16850.
For data set [2], the target named is His-DAF-16 (C-terminal fragment), O16850.

Where a chain is given by its changes, count along the chain named.

Chain of His-DAF-16 (N-terminal fragment), O16850 (O16850 whole entry, looked up, the tested form may be a part): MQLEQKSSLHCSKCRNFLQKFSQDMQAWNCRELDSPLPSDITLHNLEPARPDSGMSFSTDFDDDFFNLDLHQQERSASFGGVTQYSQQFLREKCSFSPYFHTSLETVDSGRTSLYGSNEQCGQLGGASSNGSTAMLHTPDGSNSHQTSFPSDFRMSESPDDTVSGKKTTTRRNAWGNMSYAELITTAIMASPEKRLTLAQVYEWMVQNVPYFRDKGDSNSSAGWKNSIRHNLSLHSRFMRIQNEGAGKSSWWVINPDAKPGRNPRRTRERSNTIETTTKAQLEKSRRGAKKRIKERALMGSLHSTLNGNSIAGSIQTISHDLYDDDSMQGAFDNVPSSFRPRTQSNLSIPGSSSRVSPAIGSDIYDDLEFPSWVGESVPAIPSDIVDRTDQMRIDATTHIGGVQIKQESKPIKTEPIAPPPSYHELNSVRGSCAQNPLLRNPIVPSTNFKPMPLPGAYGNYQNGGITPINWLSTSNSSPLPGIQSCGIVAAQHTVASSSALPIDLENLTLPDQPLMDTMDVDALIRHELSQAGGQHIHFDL
Chain of GST-c-Jun (1-79) (P05412 1-79): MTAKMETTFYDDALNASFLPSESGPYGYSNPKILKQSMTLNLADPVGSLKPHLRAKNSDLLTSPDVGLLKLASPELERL
Chain of His-DAF-16 (C-terminal fragment), O16850 (O16850 whole entry, looked up, the tested form may be a part): as the sequence (O16850 whole entry, looked up, the tested form may be a part) above

B1: Xpress-tagged JNK-1 (protein)
chain: MEERLSTTSSYPSHPGRSVEEDHNTLLASSSISSIIRGTRGHLNNFIESVGNWLVPSSSGRDDDAVSLDSCQSVYSPVRHHINSGTGGGILMEPSSIHVPENYYSVTIGEAQMVVLKRYQNLRLIGSGAQGIVCSAFDTVRNEQVAIKKLSRPFQNVTHAKRAYRELKLMSLVNHKNIIGILNCFTPQKKLDEFNDLYIVMELMDANLCQVIQMDLDHERLSYLLYQMLCGIRHLHSAGIIHRDLKPSNIVVRSDCTLKILDFGLARTAIEAFMMTPYVVTRYYRAPEVILGMGYKENVDVWSIGCIFGELIRGRVLFPGGDHIDQWTRIIEQLGTPDRSFLERLQPTVRNYVENRPRYQATPFEVLFSDNMFPMTADSSRLTGAQARDLLSRMLVIDPERRISVDDALRHPYVNVWFDEIEVYAPPPLPYDHNMDVEQNVDSWREHIFRELTDYARTHDIYS
For the protein B1, the “in vitro kinase assay (phosphorylation, [γ-32P]ATP, autoradiography)” value in data set [1] is recorded as “Upon activation of JNK-1 by UV, JNK-1 phosphorylates DAF-16”; in the data set with GST-c-Jun (1-79), “JNK-1 phosphorylates DAF-16 as well as the mammalian c-Jun protein used as a positive control”; in data set [2], “The phosphorylation was only observed with the N-terminal (83-307) fragment of DAF-16, but not with the C-terminal (255-470) fragment (data not shown)”.

B2: kinase-dead JNK-1 (APF) (protein)
chain: B1 chain with T276A, Y278F
With B2, the “in vitro kinase assay (phosphorylation, [γ-32P]ATP, autoradiography)” value in data set [1] is on record as “The kinase-dead JNK-1 (APF) failed to phosphorylate DAF-16”.
